This assay concerns the target V5-FoTO1 (Taxus media). Kind of assay: co-IP.

In turn, “T5αH-HA (from UniProt Q6WG30 1-499) (enzyme)” showed a fold change of the co-IP signal with 400 uM taxadiene in the lysate of 4 fold.

Values taken from paper PMC11580873.
